Measured values from patent US20090111745A1 (DOMANTIS, published 2009).

Experiments:
[1] = target: T1, human serum albumin (human, UniProt P02768 25-609); test: BIACORE SPR, albumin on a CM5 chip, dAb in solution
T1 construct: also called HSA; HAS
Description: (§1) dAbs that bound serum albumin on a BIACORE chip (Biacore AB) were then further analysed to obtain information on affinity. The analysis was performed using a CM5 chip (carboxymethylated dextran matrix) that was coated with serum albumin. Flow cell 1 was an uncoated, blocked negative control, flow cell 2 was coated with HSA, flow cell 3 was coated with RSA and flow cell 4 was coated with MSA. The serum albumins were immobilised in acetate buffer pH 5.5 using the BIACORE coating wizard which was programmed to aim for 500 resonance units (RUs) of coated material. Each dAb of interest was expressed in the periplasm of E. coli on a 200 mL-500 mL scale and purified from the supernatant using batch absorption to protein A-streamline affinity resin (Amersham, UK) for the VH_{^S} and to protein L-agarose affinity resin (Affitech, Norway) for the Vκs followed by elution with glycine at pH 2.2 and buffer exchange to PBS. A range of concentrations of dAb were prepared (in the range 5 nM to 5 μM) by dilution into BIACORE HBS-EP buffer and flowed across the BIACORE chip.

[2] = target: T2, rat serum albumin (rat, UniProt P02770 25-608); test: as above
T2 construct: also called RSA
Description: as §1

[3] = target: porcine serum albumin (porcine, UniProt P08835 25-607); test: method not stated in the legend (BIACORE SPR for the other affinities)
Chain of porcine serum albumin (P08835 25-607 limits assumed): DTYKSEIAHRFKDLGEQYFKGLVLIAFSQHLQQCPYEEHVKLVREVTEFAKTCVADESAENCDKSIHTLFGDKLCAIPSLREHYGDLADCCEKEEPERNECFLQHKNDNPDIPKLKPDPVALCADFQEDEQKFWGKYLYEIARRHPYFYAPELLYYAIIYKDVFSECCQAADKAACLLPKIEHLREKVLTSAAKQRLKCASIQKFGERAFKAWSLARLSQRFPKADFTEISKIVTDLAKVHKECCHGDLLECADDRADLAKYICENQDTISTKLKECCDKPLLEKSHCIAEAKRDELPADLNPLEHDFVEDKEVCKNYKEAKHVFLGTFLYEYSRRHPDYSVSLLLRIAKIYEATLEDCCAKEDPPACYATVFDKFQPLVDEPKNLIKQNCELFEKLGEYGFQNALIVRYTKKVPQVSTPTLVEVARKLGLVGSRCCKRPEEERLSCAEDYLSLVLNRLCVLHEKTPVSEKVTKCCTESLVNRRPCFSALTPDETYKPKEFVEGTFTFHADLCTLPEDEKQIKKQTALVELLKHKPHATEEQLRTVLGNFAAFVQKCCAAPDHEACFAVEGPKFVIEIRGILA

[4] = target: T3, mouse serum albumin (mouse, UniProt P07724 25-608); test: table of affinities (KD); BIACORE on serum albumin-coated chip according to Example 1;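 also: surface plasmon resonance with dAbs flowed over a chip carrying human, rat or mouse serum albumin, blocked uncoated flow cell as reference, KD from on- and off-rate curve fits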
T3 construct: also called MSA
Description: as §1

[5] = target: T2, rat serum albumin; test: as above
Description: as §1

[6] = target: T1, human serum albumin; test: method not stated there (BIACORE SPR in Example 1); reference value given inside prophetic Example 10

- Kd [1]: 10 to 100 nM
- Kd [2]: 100 to 500 nM
- Kd [3]: 60 nM
- Kd [4]: 200 nM
- Kd [5]: 120 nM
- Kd [6]: 70 nM
B1: DOM7h-8 (other)
VL: DIQMTQSPSSLSASVGDRVTITCRASQSISSYLNWYQQKPGKAPKLLIYRNSPLQSGVPSRFSGSGSGTDFTLTISSLQPEDFATYYCQQTYRVPPTFGQGTKVEIKR
